Measurements: the supplement of paper PMC9732359
± gives the uncertainty stated by the source.

Assay: protein stability index of a GFP-peptide fusion (yeast GPS) (PSI 1-4); higher = more stable; sorted into four equal gates, so the index is relative within each strain
Procedure, shortened: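 Each library plasmid carries Cherry plus GFP with a tiled 17-residue yeast protein peptide fused downstream, and the pooled library was carried in yeast. Mid-log cultures in leucine-free medium were sorted into four equal gates by GFP/Cherry ratio. Reads from Illumina sequencing of PCR-amplified plasmids from each gate were assigned to strains by barcodes. Per peptide, the protein stability index was computed as the summed products of gate read frequency and gate number.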

Sequence | protein stability index (doa10∆) | protein stability index (pdr5∆) | protein stability index (san1∆) | protein stability index (ubr1∆)
GGSAKPSLKFKPKAVAR [RPC53] | 2.79 ± 0.11 | 2.7 ± 0.081 | 2.44 ± 0.067 | 2.92 ± 0.073
LLARVIQMNNSLQNNLQ [SNF11] | 3.01 ± 0.11 | 2.46 ± 0.097 | 2.36 ± 0.084 | 2.06 ± 0.086
IGTGEHIHDLEKFSPKS [SRP54] | 2.33 ± 0.067 | 2.43 ± 0.053 | 2.9 ± 0.053 | 2.03 ± 0.042
PGGASGLGVLTHRNKDG [FAS1] | 3.35 ± 0.067 | 2.74 ± 0.081 | 3.24 ± 0.076 | 3.44 ± 0.069
NFLSVITNKHQEGLAKF [RPN2] | – | – | – | 3.17 ± 0.14
SSKLQLTKKYSFKIFVD [RRP42] | 2.19 ± 0.09 | 1.76 ± 0.062 | 1.76 ± 0.086 | 2.06 ± 0.044
HETTFMTAMRLMLKKLK [YML031W/NDC1] | 1.21 ± 0.097 | 2.56 ± 0.094 | 2.42 ± 0.1 | 2.5 ± 0.069
SKKAEKTGTKPAAVFTE [RPL4A] | 2.52 ± 0.068 | 2.79 ± 0.085 | 2.44 ± 0.072 | 2.76 ± 0.061
LAKKTHKQELQDLILDL [SMC4] | 3.07 ± 0.083 | 3.25 ± 0.088 | 3.14 ± 0.055 | 3.05 ± 0.067
IELLSLDDDSIVNHEQD [SRB4] | 2.9 ± 0.1 | 3.19 ± 0.089 | 3.4 ± 0.083 | 3.12 ± 0.088
RMMGCVKKQKSARGIET [FAS2] | 1.59 ± 0.09 | 1.4 ± 0.1 | 1.36 ± 0.16 | 1.48 ± 0.064
RYANKRFRKAQCPIIER [RPS5] | 2.34 ± 0.16 | 2.12 ± 0.14 | – | 1.5 ± 0.054
SAGRLYACISSRPGQSG [RPS8A] | 2.81 ± 0.095 | 3.07 ± 0.093 | 3.13 ± 0.088 | 3.03 ± 0.088
LVALLSRDLWCFSINDD [SSN2] | 2.1 ± 0.076 | 1.71 ± 0.08 | 2.5 ± 0.098 | 2.69 ± 0.098
LVEYGFDPSRIKDLKQR [SMC2] | 2.04 ± 0.049 | 2.57 ± 0.074 | 2.16 ± 0.082 | 2.51 ± 0.064
LALKLELLDFLTSNLSN [YJL039C/NUP192] | 2.55 ± 0.053 | 2.26 ± 0.043 | 2.45 ± 0.049 | 2.65 ± 0.043
TLNNIFRFDSIQRETLL [GRR1] | 2.88 ± 0.075 | 2.59 ± 0.081 | 2.75 ± 0.052 | 3.1 ± 0.04
SDKAQLNVVMKNLERLR [SMC4] | 3.28 ± 0.099 | 3.46 ± 0.15 | 3.13 ± 0.11 | 2.72 ± 0.28
LEGKGSLEEIIAEGQKK [RPP2B] | 2.5 ± 0.12 | 2.17 ± 0.072 | 3.1 ± 0.076 | 2.72 ± 0.046
ETLGLKYLGLKPGSIDA [FAS1] | 3.24 ± 0.13 | 3.24 ± 0.097 | 3.03 ± 0.076 | 3.22 ± 0.095

Sequence | protein stability index (doa10∆) | protein stability index (pdr5∆) | protein stability index (san1∆) | protein stability index (ubr1∆)
QLPKQLWRNFCRKLSFS [ITC1] | 2.67 ± 0.059 | 2.66 ± 0.05 | 2.6 ± 0.039 | 2.66 ± 0.034
SANPKKTTITRVEPETF [SWI3] | 2.86 ± 0.065 | 3.06 ± 0.068 | 3.03 ± 0.052 | 2.95 ± 0.051
MAFNLLGLLTPEVVELC [FAS2] | 1.8 ± 0.085 | 1.56 ± 0.12 | 1.22 ± 0.22 | 2.47 ± 0.12
NIAQMIPGMSNMMNQVG [SRP54] | 2.47 ± 0.064 | 2.6 ± 0.076 | 2.67 ± 0.06 | 2.7 ± 0.078
KGLTYLHLDYNFNLKPT [PRP8] | 2.19 ± 0.032 | 2.12 ± 0.035 | 2.05 ± 0.05 | 2.22 ± 0.03
KFLILNENPINKIMTNQ [NUT1] | 2.9 ± 0.11 | 2.75 ± 0.1 | 2.67 ± 0.07 | 2.99 ± 0.089
LDPNLITLALSSNPNSS [SRB4] | 2.31 ± 0.067 | 2.86 ± 0.095 | 2.4 ± 0.084 | 2.56 ± 0.11
SQTPKVEKTEKPKKPKG [RPS30A] | 3.1 ± 0.07 | 3.12 ± 0.07 | 2.93 ± 0.051 | 2.94 ± 0.047
VSSPESEKNKRQSKSSG [ITC1] | 3.03 ± 0.059 | 3.17 ± 0.052 | 2.98 ± 0.045 | 3.14 ± 0.038
APSIIFMDEIDSIGSTR [RPT6] | 2.76 ± 0.063 | 2.89 ± 0.088 | 2.83 ± 0.058 | 2.93 ± 0.054
FNRTKGKMVRAQDVALA [PRP8] | 1.86 ± 0.21 | 1.76 ± 0.13 | – | 1.06 ± 0.096
SCGYPAAKTRSYNWGAK [RPL37A] | 2.21 ± 0.29 | 3.34 ± 0.12 | 3.1 ± 0.085 | 3.31 ± 0.12
NSDDCMMEEIINVVIKA [ECM29] | 3.31 ± 0.14 | 3.67 ± 0.18 | 3.14 ± 0.11 | 2.97 ± 0.11
ALAGSEINWRHASFLCS [FAS1] | 1.77 ± 0.071 | 1.6 ± 0.057 | 1.43 ± 0.092 | 1.84 ± 0.049
SNIDIRVRVTGGGHVSQ [RPS16A] | 2.02 ± 0.093 | 2.31 ± 0.063 | 2.78 ± 0.13 | 2.08 ± 0.044
IDSPELLSLISTTAALQ [RPN7] | 2.23 ± 0.04 | 2.65 ± 0.041 | 2.32 ± 0.041 | 2.45 ± 0.032
EIFKKGYIKNNKKIYQW [POP6] | 3.46 ± 0.24 | – | – | –
PSFVKSGKLRDYQVQGL [ISW2] | 3.33 ± 0.076 | 3.39 ± 0.071 | 3.22 ± 0.039 | 3.31 ± 0.058
DDDVTPSTKVASSAVMN [YLR335W/NUP2] | 3.5 ± 0.14 | 3.19 ± 0.083 | 3.3 ± 0.065 | 3.26 ± 0.062
